# B1: CPEB3 Ribozyme (parent)
# chain: GGGGGCCACAGCAGAAGCGUUCACGUCGCGGCCCCUGUCAGAUUCUGGUGAAUCUGCGAAUUCUGCUGU
# Variants of: B1
# Assay: self-cleavage, relative activity (ratio to wild type); higher = more cleavage; co-transcriptional
row,Variant,self-cleavage
1,A10U A52G,1.03
2,A10U A52C,1
3,A10G A16G,0.894
4,A10G A16U,0.452
5,A10G A16C,0.145
6,A10G U44C,0.498
7,A10G U44A,0.702
8,C9U G30U,0.837
9,A10G U61G,0.468
10,A10G U61C,0.291
11,A10C C57U,0.275
12,A10C C57G,0.292
13,A10C C57A,0.351
14,A10G C27G,0.199
15,A10G C27A,0.857
16,A10C A15U,0.77
17,A10C A15G,0.947
18,A10C A15C,0.771
19,A10C A16U,0.818
20,A10C A16G,0.967
21,A10C A16C,0.252
22,A10G G56C,0.473
23,A10G G56A,0.784
24,A10G G56U,0.567

row,Variant,self-cleavage
1,A10C G14U,0.411
2,A10C G14A,0.363
3,A10U C22U,0.436
4,A10U C22G,0.174
5,A10G C63A,0.253
6,A10G C63G,0.338
7,A10G C63U,0.615
8,C9U G17A,0.817
9,C9U G37A,0.364
10,A10G U62A,0.578
11,A10G U62G,0.448
12,A10C C18G,0.196
13,A10G U55A,0.407
14,A10G U55C,0.407
15,A10G U64A,0.33
16,A10G U64C,0.406
17,C9U U67G,1.01
18,C9U U67A,1.01
19,C9U U67C,1.02
20,A10G G41U,0.466
21,A10G C34A,0.89
22,A10G C34G,0.82
23,C9U G56A,0.992
24,C9U G56C,0.959

row,Variant,self-cleavage
1,A10U C29U,0.361
2,A10U C29G,0.431
3,A10G C24G,0.297
4,A10G C24U,0.186
5,A10G C24A,0.615
6,A10G C32G,0.762
7,A10G U67G,0.757
8,A10G U67A,0.847
9,A10G A52U,0.834
10,A10G A52C,0.776
11,A10C U49A,1.02
12,A10C U49C,1.04
13,A10C U67G,1.03
14,A10C U67C,1.01
15,A10U C18G,0.182
16,A10C U69C,1.05
17,A10C U69G,1.05
18,A10C U69A,1.06
19,A10U C24A,0.796
20,A10U C24U,0.82
21,A10U C24G,0.569
22,C9U U38C,1.02
23,C9U U38G,0.306
24,C9U U38A,0.931

row,Variant,self-cleavage
1,A10C U46A,1.03
2,A10C U46G,0.953
3,C9U U49G,0.957
4,C9U U49A,0.99
5,C9U U49C,1.01
6,A10U C12G,0.859
7,C9U G65C,0.802
8,C9U G65U,0.845
9,A10G A51U,0.825
10,A10G A51C,0.73
11,A10G A51G,0.857
12,C9U U44A,1.02
13,C9U U44C,0.997
14,A10C C35A,0.325
15,A10C C35G,0.631
16,A10C C35U,0.992
17,A10G U20C,0.115
18,A10G U20G,0.135
19,A10G C66G,0.35
20,A10G C66U,0.645
21,A10C A23U,0.983
22,A10C A23C,0.938
23,A10G C45U,0.901
24,A10G C45A,0.784

row,Variant,self-cleavage
1,A10U A51C,0.962
2,A10G A59U,0.647
3,A10G A59C,0.517
4,A10C G11A,0.887
5,A10C G11U,0.913
6,A10C U62G,0.772
7,A10C U62C,0.72
8,C9U G48U,1.03
9,C9U G48A,1.03
10,A10U C27G,0.17
11,C9U U21C,0.999
12,A10C U44C,0.92
13,A10C U44A,0.959
14,A10C C12U,0.882
15,A10C C12G,0.659
16,A10C C12A,0.439
17,C9U C63U,0.982
18,C9U C63G,0.88
19,C9U C63A,0.968
20,A10G C29G,0.225
21,A10C G48A,1.02
22,C9U C57A,0.32
23,C9U C57U,0.38
24,A10U A60U,0.58

row,Variant,self-cleavage
1,A10U A60C,0.384
2,C9U U20A,0.148
3,C9U U20C,0.186
4,A10G U21G,0.39
5,A10G U21C,0.619
6,A10G U21A,0.83
7,C9U G19U,0.855
8,C9U G19A,0.249
9,A10C G68C,1.04
10,A10C G68A,1.03
11,A10C G68U,1.03
12,A10G G28U,0.142
13,A10G G28A,0.254
14,A10C G28A,0.125
15,A10C G28U,0.12
16,A10C C45U,1
17,A10C C45A,0.97
18,C9U G31A,1
19,C9U G31U,0.977
20,C9U G31C,0.38
21,A10C G47A,1.04
22,A10C G47U,1.01
23,A10C G17A,0.48
24,A10C G17C,0.0999

row,Variant,self-cleavage
1,A10C A52G,0.988
2,C9U U69G,1.07
3,C9U U69A,1.03
4,A10C C27A,0.666
5,A10C C27U,0.508
6,A10C C39A,0.861
7,A10C C39G,0.987
8,A10C A13U,0.484
9,A10C A13C,0.638
10,A10C A13G,0.911
11,A10C C33G,0.988
12,A10C C33A,0.965
13,A10G A15C,0.254
14,A10G A15U,0.253
15,A10G A15G,0.786
16,C9U G58C,1.02
17,C9U G25U,0.192
18,C9U G25C,0.146
19,A10C G37C,0.23
20,A10C G37U,0.244
21,C9U U26C,0.999
22,A10G C57G,0.199
23,A10G C57U,0.284
24,A10G C57A,0.322

row,Variant,self-cleavage
1,A10U C34A,0.983
2,C9U U64C,0.999
3,C9U U64A,1.04
4,C9U U64G,0.981
5,A10G G50C,0.818
6,A10G G50U,0.87
7,A10G A42G,0.636
8,A10G A42U,0.78
9,A10C U21A,0.959
10,A10C C24U,0.891
11,A10C C24A,0.738
12,A10G C22U,0.23
13,A10G C22G,0.145
14,A10G G30C,0.94
15,A10G G47C,0.927
16,A10G G47A,0.986
17,A10G A40C,0.201
18,A10G A40G,0.728
19,A10U A15U,0.772
20,A10U A15G,0.999
21,A10C U26A,0.943
22,A10C U26C,1.02
23,A10C U26G,0.885
24,A10C G31U,0.913

row,Variant,self-cleavage
1,A10C G31A,0.968
2,A10C U38C,1
3,A10G G58C,0.888
4,A10G G58A,0.969
5,A10G A60G,0.656
6,A10G G17U,0.106
7,A10G G17A,0.132
8,A10C A42U,0.921
9,A10C C63U,1.02
10,A10C C63A,0.676
11,A10G U53G,0.646
12,C9U G68A,1.05
13,C9U G68U,1.02
14,A10G U43G,0.344
15,A10G U43A,0.455
16,A10G U43C,0.651
17,A10U A59U,0.879
18,A10U A59C,0.778
19,C9U G41A,0.923
20,C9U U55C,1.02
21,C9U U55G,0.953
22,C9U U55A,0.932
23,A10C G30C,0.923
24,A10C G30U,0.753

row,Variant,self-cleavage
1,A10C G30A,0.994
2,A10C G56C,0.772
3,A10C U53C,0.863
4,A10C U53A,0.976
5,A10U A23C,0.968
6,A10U A23G,0.983
7,A10U A23U,1
8,A10C G19A,0.162
9,A10C U20C,0.286
10,A10C U20G,0.0821
11,A10C U20A,0.205
12,A10C U64G,0.804
13,A10G G11A,0.143
14,A10G G11U,0.743
15,A10G G11C,0.79
16,A10C A40U,0.867
17,A10C A40C,0.378
18,A10G U36C,0.761
19,A10G U36A,0.117
20,A10G U36G,0.155
21,A10U C32A,0.93
22,A10U C32G,0.64
23,A10U C32U,1.02
24,C9U U43A,0.971

row,Variant,self-cleavage
1,C9U U43C,1.02
2,A10G A23G,0.832
3,A10G A23U,0.748
4,C9U U61G,0.985
5,C9U U61A,1
6,C9U G28A,0.227
7,C9U G28C,0.173
8,A10U A16C,0.281
9,A10U A42U,0.999
10,A10U A42G,0.899
11,A10C C34U,0.986
12,A10C C34A,0.981
13,A10G G31A,0.953
14,A10G G31U,0.868
15,A10C U55A,0.824
16,A10C U55C,0.911
17,A10C A51U,1.02
18,A10C A51C,0.978
19,A10C A51G,1.06
20,A10G G48C,0.968
21,A10G G48A,0.898
22,A10G G48U,1
23,C9U G14A,0.878
24,A10G G19U,0.162

row,Variant,self-cleavage
1,A10G G19C,0.104
2,A10G G19A,0.157
3,A10C U61C,0.763
4,A10C U61A,0.937
5,A10C U61G,0.768
6,A10U A13C,0.808
7,A10C G25A,0.212
8,A10C G25C,0.103
9,A10C C22G,0.141
10,A10C C22U,0.351
11,A10C C29A,0.596
12,A10C C29G,0.165
13,C9U U36G,0.214
14,C9U U53G,0.984
15,C9U U53A,0.961
16,C9U U62G,0.987
17,A10G G25C,0.125
18,A10C G58U,0.999
19,A10C G58C,0.965
20,A10C A60U,0.484
21,A10C A60C,0.28
22,A10C A60G,0.853
23,A10G C33A,0.926
24,C9U G11A,0.971

row,Variant,self-cleavage
1,C9U G11C,0.927
2,A10C G65A,0.798
3,A10C G65C,0.637
4,A10C G65U,0.655
5,A10C C32A,0.908
6,A10C C32U,1.04
7,C9U G50U,1
8,C9U G50C,1.02
9,A10U,1
10,A10C,1.01
11,A10G,0.94
12,C9U U46A,0.964
13,C9U U46G,1.04
14,C9U U46C,1.02
15,A10G U46G,0.901
16,A10G U46C,0.907
17,C9U C66A,0.968
18,C9U C66U,1.05
19,A10G U69G,0.978
20,A10G U69C,1.06
21,A10G U69A,0.981
22,A10U C33U,0.971
23,A10U C33A,0.977
24,A10U C33G,0.922

row,Variant,self-cleavage
1,A10U A40C,0.516
2,A10U A40U,0.911
3,A10G G37C,0.175
4,C9U G47A,1.06
5,A10C G50A,0.971
6,A10G U49A,0.932
7,A10G U49C,0.99
8,A10G U49G,0.907
9,A10G C54U,0.8
10,A10G C54G,0.404
11,A10G C54A,0.527
12,A10G G65C,0.288
13,A10C A59U,0.82
14,A10G A13C,0.182
15,A10G G14U,0.12
16,A10G G14A,0.195
17,A10G G68U,0.917
18,A10G G68A,0.943
19,A10G G68C,0.941
20,A10G C39A,0.42
21,A10G C39U,0.633
22,A10G C39G,0.595
